First the molecules themselves.
T1: CD123 (Homo sapiens (Human), UniProt P26951 19-305, limits assumed)
T1 construct: also called CD123-Signal
T1 sequence: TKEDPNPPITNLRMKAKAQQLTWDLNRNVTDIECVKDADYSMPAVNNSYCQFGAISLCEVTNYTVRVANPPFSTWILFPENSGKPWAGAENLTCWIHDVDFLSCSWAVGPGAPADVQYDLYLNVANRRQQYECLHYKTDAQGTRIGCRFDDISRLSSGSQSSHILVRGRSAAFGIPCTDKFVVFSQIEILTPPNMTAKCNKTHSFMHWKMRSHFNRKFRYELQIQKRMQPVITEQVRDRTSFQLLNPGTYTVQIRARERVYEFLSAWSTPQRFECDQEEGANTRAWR

B1: D domain SEQ ID NO: 681 (designed binder)
chain: MGSWDEFEERLQAIEYRLWALGGSEAELAWFEEVIAQFEYDLQKYKGKGNPEVEALSTEAQAIQDELWAYRHN
B2: D domain SEQ ID NO: 676 (designed binder)
chain: MGSWWEFSWRLEAIETRLDALGGSEAELAFFEMDIAWFEQDLQLYKGKGNPEVEALEEEAYAIYEELEAYRHN
B3: D domain SEQ ID NO: 675 (designed binder)
chain: MGSWYEFEDRLAAIEARLWALGGSEAELADFEEEIAYFEHGLQWYKGKGNPEVEALESEAMAIIDELHAYRHN
B4: D domain SEQ ID NO: 699 (designed binder)
chain: MGSWGEFMDRLEAIDYRLWALGGSEAELAWFESDIAEFEQELQMYKGKGNPEVEALWDEAMAIRDELFAYRHN
B5: D domain SEQ ID NO: 685 (designed binder)
chain: MGSWVEFYNRLDAIENRLWALGGSEAELAFFEELIAQFEFALQDYKGKGNPEVEALEDEADAIWEELMAYRHN
B6: D domain SEQ ID NO: 700 (designed binder)
chain: MGSWEEFDDRLDAIEHRLWALGGSEAELADFEGSIAAFESWLQVYKGKGNPEVEALEAEAEAIADELWAYRHN
B7: D domain SEQ ID NO: 698 (designed binder)
chain: MGSWYEFEDRLDAILYRLLALGGSEAELAWFERDIAFFESELQWYKGKGNPEVEALEWEAMAIDDELFAYRHN
B8: D domain SEQ ID NO: 687 (designed binder)
chain: MGSWREFHDRLFAIDGRLWALGGSEAELANFEWDIADFEFELQDYKGKGNPEVEALSWEADAIMQELGAYRHN
B9: D domain SEQ ID NO: 688 (designed binder)
chain: MGSWEEFDERLWAISDRLWALGGSEAELAYFEGEIAYFEQNLQTYKGKGNPEVEALQTEALAIDTELWAYRHN
B10: D domain SEQ ID NO: 673 (designed binder)
chain: MGSWAEFEDRLAAIERRLEALGGSEAELADFESSIAWFEPDLQYYKGKGNPEVEALMYEAEAIFSELYAYRHN
B11: D domain SEQ ID NO: 662 (designed binder)
chain: MGSWFEFPYRLEAIEERLYALGGSEAELAQFEQFIAWFEMDLQDYKGKGNPEVEALWFEANAIVEELDAYRHN
B12: D domain SEQ ID NO: 686 (designed binder)
chain: MGSWEEFYYRLHAIDNRLWALGGSEAELAYFEWHIADFELELQDYKGKGNPEVEALSEEATAIFEELWAYRHN
B13: D domain SEQ ID NO: 664 (designed binder)
chain: MGSWVEFWDRLDAIEERLWALGGSEAELAEFEFMIAMFEQHLQEYKGKGNPEVEALIPEAGAIDKELTAYRHN
B14: D domain SEQ ID NO: 669 (designed binder)
chain: MGSWFEFQWRLEAIEDRLWALGGSEAELAEFETIIAGFEEQLQVYKGKGNPEVEALEEEAMAIQTELHAYRHN
B15: D domain SEQ ID NO: 690 (designed binder)
chain: MGSWDEFHQRLAAIGDRLWALGGSEAELAYFEWEIATFEWDLQVYKGKGNPEVEALYFEATAIDEELMAYRHN
B16: D domain SEQ ID NO: 663 (designed binder)
chain: MGSWVEFYDRLEAIEIRLWALGGSEAELADFESFIAHFEDDLQAYKGKGNPEVEALMDEANAIVFELDAYRHN
B17: D domain SEQ ID NO: 672 (designed binder)
chain: MGSWWEFLDRLEAIEYRLQALGGSEAELAVFEWEIAMFEDHLQGYKGKGNPEVEALHSEAHAIISELSAYRHN
B18: D domain SEQ ID NO: 684 (designed binder)
chain: MGSWVEFFWRLDAIEDRLWALGGSEAELANFEFEIADFEAWLQKYKGKGNPEVEALHSEADAIQLELRAYRHN
B19: D domain SEQ ID NO: 692 (designed binder)
chain: MGSWDEFDTRLDAIFSRLYALGGSEAELAMFEGEIAEFEGSLQHYKGKGNPEVEALDFEAHAIDEELWAYRHN
B20: D domain SEQ ID NO: 666 (designed binder)
chain: MGSWYEFWRRLDAIEERLWALGGSEAELAMFETDIAGFEWMLQLYKGKGNPEVEALEHEAWAINSELDAYRHN
B21: D domain SEQ ID NO: 670 (designed binder)
chain: MGSWWEFEDRLWAIEQRLDALGGSEAELAVFENSIAKFEDMLQVYKGKGNPEVEALHEEADAIIWELYAYRHN
B22: D domain SEQ ID NO: 696 (designed binder)
chain: MGSWLEFEDRLVAIDHRLFALGGSEAELAEFEEEIALFESYLQDYKGKGNPEVEALNWEADAIHAELYAYRHN
B23: D domain SEQ ID NO: 691 (designed binder)
chain: MGSWVEFEYRLDAISDRLWALGGSEAELAFFENEIASFESDLQFYKGKGNPEVEALMFEAEAIDDELHAYRHN
B24: D domain SEQ ID NO: 689 (designed binder)
chain: MGSWEEFEQRLWAIDDRLWALGGSEAELAFFEYEIAEFEMDLQWYKGKGNPEVEALFYEAHAINEELWAYRHN
B25: D domain SEQ ID NO: 682 (designed binder)
chain: MGSWWEFTDRLDAIFDRLWALGGSEAELAAFEESIAIFEQDLQYYKGKGNPEVEALEYEANAIQYELEAYRHN
B26: D domain SEQ ID NO: 665 (designed binder)
chain: MGSWDEFDARLWAIEERLWALGGSEAELAEFEFMIAAFEDVLQEYKGKGNPEVEALMGEANAIVMELDAYRHN
B27: D domain SEQ ID NO: 693 (designed binder)
chain: MGSWHEFDDRLDAIMSRLDALGGSEAELATFEAEIATFEFVLQLYKGKGNPEVEALLAEAYAIDWELEAYRHN
B28: D domain SEQ ID NO: 674 (designed binder)
chain: MGSWWEFYDRLTAIEARLWALGGSEAELADFEEGIADFEYDLQDYKGKGNPEVEALFWEAWAIQSELTAYRHN
B29: D domain SEQ ID NO: 679 (designed binder)
chain: MGSWFEFEERLEAIIYRLWALGGSEAELAMFEESIAWFESDLQQYKGKGNPEVEALEYEAMAISKELKAYRHN
B30: D domain SEQ ID NO: 667 (designed binder)
chain: MGSWHEFIWRLDAIEERLWALGGSEAELAWFETEIATFEAQLQDYKGKGNPEVEALEWEAIAIAWELDAYRHN
B31: D domain SEQ ID NO: 694 (designed binder)
chain: MGSWYEFFDRLDAIYDRLYALGGSEAELASFEAQIAEFEVELQSYKGKGNPEVEALEWEAWAIDEELYAYRHN
B32: D domain SEQ ID NO: 677 (designed binder)
chain: MGSWEEFFFRLEAIDDRLYALGGSEAELALFEEVIAYFEQDLQWYKGKGNPEVEALYVEAYAIQEELYAYRHN
B33: D domain SEQ ID NO: 671 (designed binder)
chain: MGSWWEFEDRLWAIDRRLMALGGSEAELAVFEQMIAHFEQILQVYKGKGNPEVEALHFEAHAIGMELAAYRHN
B34: D domain SEQ ID NO: 661 (designed binder)
chain: MGSWWEFEQRLDAIETRLWALGGSEAELAYFEHIIADFEDELQIYKGKGNPEVEALGWEAFAIDGELTAYRHN
B35: D domain SEQ ID NO: 668 (designed binder)
chain: MGSWYEFYWRLEAIEERLWALGGSEAELAEFEKAIATFEDQLQTYKGKGNPEVEALETEALAIHAELEAYRHN
B36: D domain SEQ ID NO: 695 (designed binder)
chain: MGSWFEFLYRLDAIEDRLWALGGSEAELAEFEQEIAKFESELQSYKGKGNPEVEALEWEAHAIDMELEAYRHN
B37: D domain SEQ ID NO: 683 (designed binder)
chain: MGSWWEFTDRLEAIEDRLWALGGSEAELAHFEDSIAQFEQELQWYKGKGNPEVEALADEADAIESELHAYRHN
B38: D domain SEQ ID NO: 680 (designed binder)
chain: MGSWAEFDDRLEAIEYRLHALGGSEAELAWFEEGIAGFEHALQSYKGKGNPEVEALETEAGAINEELWAYRHN
B39: D domain SEQ ID NO: 697 (designed binder)
chain: MGSWYEFESRLDAIVDRLWALGGSEAELAEFEYEIAKFEWELQDYKGKGNPEVEALNWEAGAIEFELYAYRHN
B40: D domain SEQ ID NO: 660 (designed binder)
chain: MGSWYEFEQRLGAIEERLWALGGSEAELAAFEDIIAYFEYQLQSYKGKGNPEVEALDEEAWAIDDELWAYRHN
B41: D domain SEQ ID NO: 678 (designed binder)
chain: MGSWFEFEERLNAISWRLHALGGSEAELAYFEEDIAWFEDDLQFYKGKGNPEVEALENEAYAIWEELDAYRHN

The target of the assay is T1, CD123. Kind of assay: ELISA, format not described. Details: unit not given here. Background: ELISA stands for enzyme-linked immunosorbent assay.
The molecule B1 yielded an ELISA_avg of 3.8.

B2 returned an ELISA_avg of 3.3. In the case of B3 it was 3.8; in that of B4, 4.6; in that of B5, 6.9. Then B6, with 4. In the case of B7, the ELISA_avg is 4.3. Turning to B8, the ELISA_avg is 5.6. Then B9, with 6.5. Regarding B10, the ELISA_avg was found to be 4.2.

The molecule B11 showed an ELISA_avg of 3.1. In the case of B12 it was 3. In turn, B13 yielded an ELISA_avg of 10. For B14, the ELISA_avg is 3.4. Molecule B15 showed an ELISA_avg of 3.7. In the case of B16 it was 4; in that of B17, 3.1; in that of B18, 4. The molecule B19 came in with an ELISA_avg of 4. B20: the ELISA_avg is 3.6. With B21, the ELISA_avg came to 4.4.

B22 yielded an ELISA_avg of 3.9. Then B23, with 6.5; and B24, with 5.7. In the case of B25 it was 7.5; in that of B26, 4.3; in that of B27, 7.7. Molecule B28 gave an ELISA_avg of 3.2. Consider B29, for which the ELISA_avg was determined as 3.7. Then B30, with 3.3; and B31, with 4.7; and B32, with 3.2. The molecule B33 came in with an ELISA_avg of 4.6.

In the case of B34, the ELISA_avg was 4.7. Then B35, with 3.7; and B36, with 6.6. B37 showed an ELISA_avg of 16.6. In the case of B38 it was 5.8; in that of B39, 5.1; in that of B40, 10.6. For B41, the ELISA_avg came out at 13.
